Data published in patent publication US20110152202A1 (STC UNM, published 2011).

T1: mouse FcγRI on mouse peritoneal macrophages (from FcγRIIb-/- mice) (mouse, UniProt P26151 25-404)
T1 construct: whole, on cells; also called FcγRI on mouse macrophages
T1 sequence (looked up): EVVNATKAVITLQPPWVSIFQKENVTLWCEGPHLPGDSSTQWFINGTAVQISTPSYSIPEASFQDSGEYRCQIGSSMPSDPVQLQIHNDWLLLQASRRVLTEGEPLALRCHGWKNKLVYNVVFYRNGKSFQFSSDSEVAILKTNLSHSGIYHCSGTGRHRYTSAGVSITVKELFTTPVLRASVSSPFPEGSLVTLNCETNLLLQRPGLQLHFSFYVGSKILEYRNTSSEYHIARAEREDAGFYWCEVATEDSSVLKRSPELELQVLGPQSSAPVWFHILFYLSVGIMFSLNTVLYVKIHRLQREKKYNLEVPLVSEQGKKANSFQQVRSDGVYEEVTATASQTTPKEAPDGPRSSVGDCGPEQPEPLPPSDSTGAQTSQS


Columns and labels:
[1] = target: T1, mouse FcγRI on mouse peritoneal …; experiment: two-color flow cytometry of CRP bound to mouse peritoneal macrophages expressing FcγRI (from FcγRIIb-/- mice); panel title 'Binding to FcγRI'
Excerpt: A. Macrophages expressing FcγRI (from FcγRIIb^{-/-} mice). B. Macrophages expressing FcγRIIb (from FcR γ-chain^{-/-} mice).

human FcγRI = target: T2, human FcγRI (human, UniProt P12314 16-288, limits assumed); experiment: SPR, CRP as analyte on immobilized human FcγR
T2 construct: Immobilized on the SPR chip
T2 sequence (P12314 16-288 limits assumed): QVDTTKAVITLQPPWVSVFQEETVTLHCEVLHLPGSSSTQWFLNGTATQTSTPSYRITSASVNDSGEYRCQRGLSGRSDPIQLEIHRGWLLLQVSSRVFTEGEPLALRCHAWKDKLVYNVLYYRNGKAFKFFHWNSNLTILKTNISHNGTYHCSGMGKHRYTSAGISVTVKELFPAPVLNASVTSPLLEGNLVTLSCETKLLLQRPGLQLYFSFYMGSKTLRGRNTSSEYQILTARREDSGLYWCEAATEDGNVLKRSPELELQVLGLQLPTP

human FcγRIII = human FcγRIII (human); experiment: SPR, CRP as analyte on immobilized human FcγR
Sequence of human FcγRIII (human) (O75015 17-200): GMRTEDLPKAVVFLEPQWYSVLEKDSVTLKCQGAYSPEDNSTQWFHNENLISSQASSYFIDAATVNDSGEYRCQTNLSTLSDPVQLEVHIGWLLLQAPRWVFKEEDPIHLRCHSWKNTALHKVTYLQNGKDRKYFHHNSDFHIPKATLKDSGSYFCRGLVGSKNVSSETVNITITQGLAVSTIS

Row | binding result [1] | Kd (human FcγRI) [µM] | Kd (human FcγRIII) [µM] | Binder
1 | binds | 3.2 | 4.1 | C-reactive protein (human CRP) (ligand, also called purified human CRP; native CRP) QTDMSRKAFVFPKESDTSYVSLKAPLTKPLKAFTVCLHFYTELSSTRGYSIFSYATKRQDNEILIFWSKDIGYSFTVGGSEILFEVPEVTVAPVHICTSWESASGIVEFWVDGKPRVRKSLKKGYTVGAEASIILGQEQDSFGGNFEGSQSLVGDIGNVNMWDFVLSPDEINTIYLGGPFSPNVLNWRALKYEVQGEVFTKPQLWP
2 | binds | 3.5 | – | Y175L mutant CRP (tyrosine 175 replaced by leucine) (ligand, It has 206 amino acids; The protein is recombinant; also called Y175L CRP; recombinant Y175L mutant CRP) QTDMSRKAFVFPKESDTSYVSLKAPLTKPLKAFTVCLHFYTELSSTRGYSIFSYATKRQDNEILIFWSKDIGYSFTVGGSEILFEVPEVTVAPVHICTSWESASGIVEFWVDGKPRVRKSLKKGYTVGAEASIILGQEQDSFGGNFEGSQSLVGDIGNVNMWDFVLSPDEINTILLGGPFSPNVLNWRALKYEVQGEVFTKPQLWP
